Reference: patent publication US20220146515A1 (XIAMEN INNODX BIOTECH, published 2022)

Assays:
Experiment in all cases: competition ELISA, antibody preincubated with target, AMH-coated plate
[1] = molecular target: T1, AMH truncated antigen 42-49 (human)
T1 peptide: DLDWPPGS
Protocol: (§1) 1. AMH antigen was diluted with carbonic acid buffer (20 mmol/L CB, pH 9.6) and then coated on a polyvinyl chloride plate. In the pretreatment, the antibody purified by the protein A column and the synthesized AMH truncated antigen sequences (see Table 3 for each synthetic sequence) were subjected to proportion incubation (100 ng/ml antibody: 50 ug/ml truncated antigen) for 30 minutes, that were test samples; the control sample was 100 ng/ml antibody: PBS, incubation for 30 minutes, and then the test samples after incubation and the control sample were added to AMH antigen plate and incubated for 30 minutes, the plate was washed for 5 times, added with GAM-HRP (1/5000 dilution) and incubated for 30 minutes, the plate was washed for 5 times, and the substrate was added and incubated for 15 minutes. The values under wavelength of 450/620 were read by microplate reader, and the detected OD values were finally calculated and analyzed. The calculation formula was: (control sample OD value−test sample OD value)/control sample OD value, and the criterion for determination was as follows: more than 90%, which indicated a good competitive effect, showing that the antibody should recognize the epitope.

[2] = molecular target: T2, AMH truncated antigen 41-45 (human)
T2 peptide: EDLDW
Protocol: as §1

[3] = molecular target: T3, AMH truncated antigen 31-41 (human)
T3 peptide: AVGTSGLIFRE
Protocol: as §1

[4] = molecular target: T4, AMH truncated antigen 34-45 (human)
T4 peptide: TSGLIFREDLDW
Protocol: as §1

[5] = molecular target: T5, AMH truncated antigen 41-48 (human)
T5 peptide: EDLDWPPG
Protocol: as §1

[6] = molecular target: T6, AMH truncated antigen 37-45 (human)
T6 peptide: LIFREDLDW
Protocol: as §1

[7] = molecular target: T7, AMH truncated antigen 34-41 (human)
T7 peptide: TSGLIFRE
Protocol: as §1

[8] = molecular target: T8, AMH truncated antigen 42-48 (human)
T8 peptide: DLDWPPG
Protocol: as §1

[9] = molecular target: T9, AMH truncated antigen 36-47 (human)
T9 construct: also called human AMH36-47; AMH3647-27 (Human)
T9 peptide: GLIFREDLDWPP
Protocol: as §1

[10] = molecular target: T10, AMH truncated antigen 32-41 (human)
T10 peptide: VGTSGLIFRE
Protocol: as §1

[11] = molecular target: T11, AMH truncated antigen 33-41 (human)
T11 peptide: GTSGLIFRE
Protocol: as §1

[12] = molecular target: T12, AMH truncated antigen 35-45 (human)
T12 peptide: SGLIFREDLDW
Protocol: as §1

[13] = molecular target: T13, AMH truncated antigen 31-45 (human)
T13 peptide: AVGTSGLIFREDLDW
Protocol: as §1

[14] = molecular target: T14, AMH truncated antigen 42-47 (human)
T14 peptide: DLDWPP
Protocol: as §1

[15] = molecular target: T15, AMH truncated antigen 41-49 (human)
T15 peptide: EDLDWPPGS
Protocol: as §1

- percent inhibition [1]: -8%
- percent inhibition [2]: 15%
- percent inhibition [3]: 10%
- percent inhibition [4]: 98%
- percent inhibition [5]: -1%
- percent inhibition [6]: 91%
- percent inhibition [7]: 3%
- percent inhibition [8]: 2%
- percent inhibition [9]: 100%
- percent inhibition [10]: 9%
- percent inhibition [11]: 9%
- percent inhibition [12]: 97%
- percent inhibition [13]: 90%
- percent inhibition [14]: 6%
- percent inhibition [15]: 3%
B1: monoclonal antibody C9F2-2 (antibody, V domains shown)
VH: EVQLVESGGGLVKPGGSLKLSCAASGFAFSTYDMSWVRQTPEKRLEWVAYISPGGGATYYPDTVKGRFTISRDNAKNTLYLQMTSLKSEDTAMYYCAGRRDYYGMDYWGQGTSVTVSS
VL: DVVMTQTPLSLPVSLGDQASISCRSSQSLVHSNGNTYLHWYLQKPGQSPKLLIYKVSNRFSGVPDRFSGSGSGTDFTLKISRVEAEDLGVYFCSQSTHVPWTFGGGTKLEIK
notes: Mouse hybridoma antibody purified from ascites; the tie is indirect; also called hybridoma CCTCC NO: C2018183
